As usually defined, the EC50 is the concentration giving half of the maximal effect. In general, EC50 (read off the curve) refers to the concentration that produces a half-maximal response.

Where two headings read alike, the source gives them in different places.

We go through 4 molecules from patent US20180186871A1 (SINGAPORE HEALTH SERVICES PTE, published 2018).

The target of assay [1] is T1, human IL-11 (human, UniProt P20809 22-199).
T1 construct: In the ELISAs this is recombinant human IL-11 coated on the plate (expressed in CHO cells as Fc-tagged and tag-free versions); In the fibroblast assays it is the IL-11 produced by human fibroblasts after TGFβ1 stimulation; also called recombinant human IL-11 (GenScript Cat. No. Z03108-1); interleukin 11
T1 sequence (looked up): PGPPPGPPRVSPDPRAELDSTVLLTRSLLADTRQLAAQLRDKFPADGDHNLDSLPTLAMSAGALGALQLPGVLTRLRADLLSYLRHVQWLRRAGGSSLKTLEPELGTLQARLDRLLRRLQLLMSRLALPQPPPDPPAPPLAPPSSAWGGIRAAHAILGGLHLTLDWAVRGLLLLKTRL
The assay is described as follows: EC50 by indirect ELISA on plate-coated recombinant human IL-11 (five-parameter fit); no titration curve of Yu33-B4 is drawn in FIGS. 28A-28F, ng/ml is the concentration unit of FIG. 28 and paragraph 502.

Assay [2] deals with T1, human IL-11. Nature of the assay: EC50 from the indirect ELISA titrations of FIGS. 28A-28F on plate-coated recombinant human IL-11 (five-parameter fit), ng/ml is the concentration unit of FIG. 28 and paragraph 502. For orientation: In an ELISA, binding on a coated surface is turned into a signal by an enzyme label.
For assay [3], the target named is T1, human IL-11. Nature of the assay: indirect ELISA on plate-coated recombinant human IL-11 (1 µg/mL), detection with HRP anti-human IgG (Fc-specific), absorbance 450-570 nm.
The target in assay [4] is T1, human IL-11. The description is as above. The source holds these as a separate data set.
Assay [5] has as its target T1, human IL-11. Described as above. This is another data set of the same source.

B1: YU33-B4/YU45-G2/A3 (Fc fusion)
VH: EVQLVESGGGVVQPGRSLRLSCAASGFTFSSYGMHWVRQAPGKGLEWVAVISYDGSNKYYADSVKGRFTISRDNSKNTLYLQMNSLRAEDTAVYYCAKIGATDPLDYWGQGTLVTVSS
VL: QSALTQPASVSGSPGQSITISCTGTSSDVGGYNYVSWYQQHPGKAPKLMIYDVSNRPSGVSNRFSGSKSGNTASLTIFGLQAEDEADYYCSSYTSSSSWVFGGGTKLTVL
notes: tested as scFv-Fc (human IgG1)
With B1, the EC50 in assay [1] turned out to be 198 ng/mL; in assay [2] it was 14.2 ng/mL.

B2: YU45-F2 (Fc fusion)
VH: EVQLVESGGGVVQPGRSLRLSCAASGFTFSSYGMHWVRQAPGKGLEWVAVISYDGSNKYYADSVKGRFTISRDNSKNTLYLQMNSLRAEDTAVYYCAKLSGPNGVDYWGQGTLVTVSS
VL: QPVLTQPRSVSGSPGQSVTISCTGTSSDVGGYNYVSWYQQHPGKAPKVMIYDVSKRPSGVPDRFSGSKSGNTASLTISGLQAEDEADYYCCSYAGSYTWVFGGGTKLTVL
notes: tested as scFv-Fc (human IgG1); also called #24
Consider B2, for which, in assay [2], the EC50 is 4.24 ng/mL. The 50% effective concentration (EC50 (read off the curve)) in assay [3] is around 4 ng/mL.

B3: Yu33-A2 (IgG) (antibody, V domains shown)
VH: QLQQSGPGLVKPSQTLSLTCAISGDSVSSNSAAWNWIRQSPSRGLEWLGRTYYRSKWYNDYAVSVKSRITINPDTSKNQFTLQLNSVTPDDTAVYYCARGTRGYFDYWGQGTLVTVSS
VL: DVVMTQSPSSLSASVGDRVTITCRASQDVGRYVAWYQQKVGKVPRLLIYAASALQSGVPSRFSGTASETSFTLTISSLQPEDVASYYCQQYRSAPLAFGGGTGVEIK
notes: also called #1
With B3, the binding result in assay [4] is recorded as “no binding (tested: 800 ng/ml)”.

B4: Yu33-H3 (IgG) (antibody, V domains shown)
VH: EVQLVESGGGFVKPGGSLSISCAASGFTFSGAYMNWVRQAPGKGLEWVAVISYDGSNKYYADSVKGRFTISRDNSKNTLYLQMNSLRAEDTAVYYCARDLYAFDIWGQGTMVTVSS
VL: LPVLTQPHSVSESPGRTVTISCTRNTGNIASNRVQWYQQRPASAPTVVIYDNHQRPSGVPDRFSGSIDTSPNSAYLTISGLKTEDEADYYCQSYDYSSVIFGGGTQLTVL
notes: also called YU33-B3/H3; #2
With B4, the binding result in assay [5] is given as “binds”.
